Laboratory results as given in US20100196392A1 (Kyowa Kirin, published 2010).
Changes are numbered by the printed parent chain. Blank lines part the entries; values can stand above or below the binder they belong to.

Tests used:
[1] = target: T1, human ASCT2 (system ASC amino acid transporter 2), endogenous on human cancer cell lines KMS-11, OPM-2, WiDr … (human, UniProt Q15758 1-541); assay: flow cytometry on KMS-11 cells
T1 construct: also called SLC1A5
T1 sequence: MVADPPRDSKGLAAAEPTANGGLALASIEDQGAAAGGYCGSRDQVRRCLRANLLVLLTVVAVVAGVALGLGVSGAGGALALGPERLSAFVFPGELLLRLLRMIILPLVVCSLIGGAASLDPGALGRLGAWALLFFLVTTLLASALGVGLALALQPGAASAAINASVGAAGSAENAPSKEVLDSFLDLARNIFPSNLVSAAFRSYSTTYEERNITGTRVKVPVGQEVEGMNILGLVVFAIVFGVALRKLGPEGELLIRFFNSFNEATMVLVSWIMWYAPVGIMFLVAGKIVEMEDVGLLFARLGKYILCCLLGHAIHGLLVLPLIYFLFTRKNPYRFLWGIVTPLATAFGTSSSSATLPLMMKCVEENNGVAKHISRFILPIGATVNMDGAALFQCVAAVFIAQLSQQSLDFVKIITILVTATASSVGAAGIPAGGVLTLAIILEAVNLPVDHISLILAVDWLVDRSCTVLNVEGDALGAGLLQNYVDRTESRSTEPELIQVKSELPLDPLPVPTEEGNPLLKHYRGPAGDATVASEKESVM
Method: (§1) The human ASCT2-myc/His gene-introduced CHO cell obtained in Example 2, the vector-introduced CHO cell and the multiple myeloma cell line KMS-11 (HSRRB No. JCRB1179) were respectively cultured in a 5% CO₂ incubator for 3 to 4 days at 37° C. The human ASCT2-myc/His gene-introduced CHO cells and the vector-introduced CHO cells were peeled off with a 0.02% EDTA solution (manufactured by Nacalai Tesque) and washed with a mixed solution of PBS, 0.02% EDTA and 0.05% sodium azide. Additionally, in order to avoid the non-specific adsorption of antibodies, the cells were blocked for 30 minutes at ice temperature using 1% BSA-PBS for the human ASCT2-myc/His gene-introduced CHO cells and the vector-introduced CHO cells, and using 100 μg/mL of human IgG (manufactured by Sigma) for KMS-11. The cells were seeded into a 96-well U-bottom plate so as to give a density of 1×10⁵ to 5×10⁵ cells/100 μL/well and centrifuged at 1,500 rpm for 5 minutes (05PR-22, manufactured by Hitachi Koki) and then the supernatant was removed. The test substances as the primary antibody, i.e., the purified antibodies and rat IgG2a-UNLB (negative control, manufactured by Beckman Coulter) or KM511 {negative control, anti-G-CSF derivative antibody, [Agric. Biol. Chem., 53, 1095 (1989)], mouse IgG1} were diluted to give a final concentration of 10 μg/mL in a mixed solution (hereinafter, referred to as “Dilution Solution A”) of 1% BSA-PBS, 0.02% EDTA and 0.05% sodium azide and the resulting solution was added at the volume of 100 μL/well, followed by reaction for 60 minutes at ice temperature. […] Washing with Dilution Solution A was carried out three times again, the cells were suspended in PBS and the fluorescence intensity was measured by a flow cytometer (Cytomics FC500 MPL, manufactured by Beckman Coulter).

[2] = target: T2, human ASCT2-myc/His (fusion protein in which myc/His was added to the C-terminal of human ASCT2), expressed … (human, UniProt Q15758 1-541); assay: flow cytometry on human ASCT2-myc/His CHO cells
T2 construct: Also used as cell lysate in Western blotting and immunoprecipitation; also called ASCT2/CHO; human ASCT2-myc/His gene-introduced CHO cells
T2 sequence: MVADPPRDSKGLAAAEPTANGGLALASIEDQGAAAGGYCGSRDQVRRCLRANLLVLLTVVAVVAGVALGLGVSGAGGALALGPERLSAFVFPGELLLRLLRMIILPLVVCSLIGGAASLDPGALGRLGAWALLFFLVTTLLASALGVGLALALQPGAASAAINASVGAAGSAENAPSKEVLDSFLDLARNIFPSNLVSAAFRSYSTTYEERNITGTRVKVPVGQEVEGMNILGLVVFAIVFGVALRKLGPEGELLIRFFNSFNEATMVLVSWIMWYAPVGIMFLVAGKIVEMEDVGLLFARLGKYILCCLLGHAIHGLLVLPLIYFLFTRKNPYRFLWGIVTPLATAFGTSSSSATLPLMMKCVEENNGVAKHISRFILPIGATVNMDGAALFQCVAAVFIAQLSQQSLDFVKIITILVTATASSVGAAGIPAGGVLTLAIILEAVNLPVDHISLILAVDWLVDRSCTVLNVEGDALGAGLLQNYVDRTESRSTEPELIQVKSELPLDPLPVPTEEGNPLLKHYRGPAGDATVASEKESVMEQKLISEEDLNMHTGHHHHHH
Method: as §1

[3] = target: T1, human ASCT2 (system ASC amino acid …); assay: flow cytometry on OPM-2 cells, 0.01 to 10 ug/mL
Method: (§2) Each of the human ASCT2-myc/His gene-introduced CHO cell obtained in Example 2, and the multiple myeloma cell line OPM-2 (DSMZ Accession No. ACC50) was cultured in a 5% CO₂ incubator for 3 to 4 days at 37° C. The human ASCT2-myc/His gene-introduced CHO cells were peeled off with a 0.02% EDTA solution (manufactured by Nacalai Tesque), and in order to avoid the non-specific adsorption of antibodies, the cells were blocked for 30 minutes at ice temperature using 1% BSA-PBS. The cells were seeded into a 96-well U-bottom plate so as to give a density of 1×10⁵ to 5×10⁵ cells/100 μL/well. The plates were centrifugation at 1,500 rpm for 5 minutes (05PR-22, manufactured by Hitachi Koki), and then the supernatant was removed. As the primary antibody, the purified antibody which was a test substance was diluted to give a final concentration of 0.01 μg/mL to 10 μg/mL in 1% BSA-PBS, and dispensed to the plate at 100 μL/well, followed by reaction at ice temperature for 60 minutes. After washing the cells with 1% BSA-PBS, FITC-labeled anti-human immunoglobulin G (H+L) (manufactured by Jackson Laboratories) diluted with 1% BSA-PBS was added as the secondary antibody, followed by reaction at ice temperature for 30 minutes under shading. The cells were washed with 1% BSA-PBS and then suspended in PBS. The fluorescence intensity of the cells was measured by a flow cytometer (Cytomics FC500 MPL, manufactured by Beckman Coulter).

[4] = target: T2, human ASCT2-myc/His (fusion protein in …); assay: flow cytometry on human ASCT2-myc/His CHO cells, 0.01 to 10 ug/mL
Method: as §2

[5] = target: T3, mouse ASCT2-myc/His, expressed on CHO cells (mouse, UniProt P51912 1-553); assay: flow cytometry on mouse ASCT2/CHO cells
T3 construct: also called mouse ASCT2/CHO
T3 sequence: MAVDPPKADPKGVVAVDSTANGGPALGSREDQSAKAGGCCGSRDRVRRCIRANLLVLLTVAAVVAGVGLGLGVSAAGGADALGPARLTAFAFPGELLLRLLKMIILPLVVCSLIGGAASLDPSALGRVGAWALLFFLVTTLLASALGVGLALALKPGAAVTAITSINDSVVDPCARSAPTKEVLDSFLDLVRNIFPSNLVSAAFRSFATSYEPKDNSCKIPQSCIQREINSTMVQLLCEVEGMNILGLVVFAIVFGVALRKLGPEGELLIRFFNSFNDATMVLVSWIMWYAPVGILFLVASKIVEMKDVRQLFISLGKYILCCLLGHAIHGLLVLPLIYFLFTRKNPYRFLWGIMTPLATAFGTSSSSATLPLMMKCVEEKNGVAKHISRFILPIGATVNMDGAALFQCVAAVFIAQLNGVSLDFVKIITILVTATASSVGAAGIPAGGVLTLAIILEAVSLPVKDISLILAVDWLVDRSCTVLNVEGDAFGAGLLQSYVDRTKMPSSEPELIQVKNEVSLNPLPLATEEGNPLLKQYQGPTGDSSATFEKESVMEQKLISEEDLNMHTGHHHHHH

B1: anti-ASCT2 monoclonal antibody KM4008 (hybridoma KM4008, FERM BP-10962) (antibody, V domains shown)
VH: QIQLVQSGPELKKPGETVKISCKASGYTFTTFGMSWVKQVPGKGLKWMGWIHTYAGVPIYGDDFKGRFAFSLETSASTAYLQINNVKNEDTATYFCARRSDNYRYFFDYWGQGTTLTVSS
VL: DIQMTQTTSSLSASLGDRVTISCRASQDIRNYLNWYQRKPHGTVKLLIYYTSRLHSGVPSRFSGSGSGTDYSLTISNLEQEDIATYFCQQGHTLPPTFGGGTKLEIKR
notes: Mouse monoclonal antibody
binding result [1]: binds | binding result [2]: binds

B2: anti-ASCT2 human chimeric antibody cKM4008 (antibody, V domains shown)
VH: B1 VH
VL: B1 VL
notes: VH and VL of KM4008 were inserted into vector pKANTEX93, which carries human CH and CL; The SDS-PAGE pattern was consistent with the IgG class
binding result [3]: binds | binding result [4]: binds

B3: anti-ASCT2 monoclonal antibody KM4012 (hybridoma KM4012, FERM BP-10963) (antibody, V domains shown)
VH: B1 VH with F32Y, V40T, A55S, F64S, A76G, T78I, N102G
VL: B1 VL with T7I, R38Q, H41D, H92N
notes: Hybridoma antibody
binding result [1]: binds | binding result [2]: binds

B4: anti-ASCT2 human chimeric antibody cKM4012 (antibody, V domains shown)
VH: B1 VH with F32Y, V40T, A55S, F64S, A76G, T78I, N102G
VL: B1 VL with T7I, R38Q, H41D, H92N
notes: VH and VL of KM4012 were inserted into vector pKANTEX93, which carries human CH and CL; The SDS-PAGE pattern was consistent with the IgG class
binding result [3]: binds | binding result [4]: binds

The remaining lines, values ahead:

binding result [1]: binds | binding result [5]: no binding | binding result [2]: binds
B5: anti-ASCT2 monoclonal antibody KM4018 (antibody, V domains shown)
VH: EVQLVESGGGLVQSGRSIRLSCAASGFSFSNYYMAWVRQAPSKGLEWVASITKGGGNTYYRDSVKGRFTFSRDNAKSTLYLQMDSLRSEDTATYYCARQVTIAAVSTSYFDSWGQGVMVTVSS
VL: DIVLTQSPALAVSLGQRATISCKTNQKVDYYGNSYVYWYQQKPGQQPKLLIYLASNLASGIPARFSGRGSGTDFTLTIDPVEADDTATYYCQQSRNLPYTFGAGTKLELKR
notes: Hybridoma antibody

binding result [3]: binds | binding result [4]: binds
B6: anti-ASCT2 human chimeric antibody cKM4018 (antibody, V domains shown)
VH: B5 VH
VL: B5 VL
notes: VH and VL of KM4018 were inserted into vector pKANTEX93, which carries human CH and CL; The SDS-PAGE pattern was consistent with the IgG class
